Results from paper PMC12700558, “Aggregation shifts amyloid-β peptides from synaptogenic to synaptotoxic” (The Journal of Clinical Investigation, 2025).
Where “and” joins values, the source holds several entries; their conditions need not be identical. Identical values can stand only once.

Columns and labels:
human neurons [1] = experiment: Neuronal cell density (NLS-TdTomato-positive nuclei); format: cell-based
Experimental: The prepared aliquots of Aβ peptides were added directly to the culture media during each routine half-media change. To support optimal neuronal development, maturation, and function, while preserving essential factors released by neurons and glia, fresh media supplemented with Aβ was provided every other day until DIV10, and then once weekly until DIV45. […] During each media change, the Aβ peptides were introduced into the cultures to achieve final concentrations of 0.2 μM, 0.15 μM, 0.1 μM, 0.05 μM, 0.025 μM, and 0.005 μM. For scrambled and inverted sequence peptides, only the 0.2 μM and 0.025 μM concentrations were tested. At DIV6, we initiated a half-media replacement protocol in which 50% of the old culture medium was carefully removed and replaced with fresh medium containing Aβ peptides at twice the intended final concentration. […] For example, to achieve a final concentration of 0.2 μM, the fresh medium added at DIV6 was prepared at 0.4 μM, yielding a uniform 0.2 μM concentration after mixing with the peptide-free half. Starting from DIV8 and onward, subsequent half-media changes replaced half of the existing medium with fresh medium containing Aβ at the same target concentration (e.g., 0.2 μM), since the remaining half already contained approximately that amount. This approach was designed to mimic a chronic treatment regimen, allowing us to investigate the long-term effects of the peptides on synapse formation and neuronal activity under sustained exposure conditions.
To assess neuronal cytotoxicity induced by Aβ peptides, we employed a novel Td-Tomato cytotoxicity assay that we developed. Human neurons were infected at DIV 6 with a lentiviral vector carrying a plasmid encoding nuclear localization signal (NLS)-TdTomato under the control of the human Synapsin-1 promoter. The use of the Synapsin promoter ensured neuron-specific expression of Td-Tomato. […] When the neurons had reached full maturation, cells were examined for Td-Tomato localization. Neurons displaying cytoplasmic Td-Tomato were counted as indicators of cytotoxicity. […] For Aβ experiments, imaging and scoring were performed at DIV45, immediately after the final peptide exposure. Data were quantified by calculating the density of neurons with cytoplasmic Td-Tomato, normalized to control cultures, and presented graphically. To assess cell viability, the number of Td-Tomato–positive nuclei, which represent surviving neurons, was counted, normalized to control values, and reported in graphs.

[2] = system: human neurons cocultured with mouse glia; experiment: Quantification of 6E10-positive Aβ aggregates in human neuron cultures; format: cell-based; conditions: for Density of 6E10-positive structures (number of structures per area of field of view) / Size of 6E10-positive structures (area fraction of the field of view occupied by aggregates): human neurons/mouse glia, DIV25
Experimental: (§1) Mature human iN cells were washed 3 times with PBS (Gibco) and fixed with 4% PFA (Electron Microscopy Science) and 4% sucrose (Sigma-Aldrich) in PBS for 10 minutes at room temperature. Cells were then washed three times with PBS, followed by permeabilization and blocking with 0.25% Triton-X-100 (Sigma-Aldrich), 2.5% bovine serum albumin (BSA) (GeminiBio) and 2,5% NGS (Sigma-Aldrich) for one hour at room temperature. Incubation with primary antibodies was performed overnight at 4°C in the corresponding blocking buffer ([41]). For endosome analyses, fixing solution contained only 4% PFA and the permeabilization was performed separately before the blocking step, using 0.1% Triton-X-100. Primary Antibodies used include rabbit monoclonal anti-Synapsin-1 (Yenzym antibodies, clone YZ6078, 1:1000 dilution), mouse monoclonal anti-PSD95 (Thermo Fisher Scientific, 7E3-1B8, 1:250 dilution), chicken polyclonal anti-MAP2 (EnCor, CPCA-MAP2, 1:1000 dilution), mouse monoclonal 6E10 (BioLegend, SIG-39320, 1:1000), rabbit monoclonal anti-Synaptophysin (homemade, P580 ([26])), and rabbit monoclonal anti-EEA1(Cell Signaling, C45B10, 1:1000 dilution). Cells were washed 3 times with PBS and incubated for 1 hour at room temperature with Alexa conjugated secondary antibodies: goat anti-chicken Alexa 647, goat anti-rabbit Alexa 546, goat anti-rabbit Alexa 488, and goat anti-mouse Alexa 488, all 1:500. Coverslips were washed once with PBS and once with water to remove salts before mounting, then were mounted using Fluoromount (with DAPI) (Thermo Fisher Scientific, 00-4959-52) on glass slides. All images were taken with the Nikon A1RSi confocal microscope (Nikon Instruments Inc.) for analysis of synaptic puncta using Nikon Analysis Software.
To quantify the density and size of 6E10-immunopositive aggregates, we acquired high-resolution confocal images at 60x magnification using a Nikon Eclipse Ti microscope (Nikon, Japan). All fluorescence parameters, including laser power and detector settings, were held constant throughout image acquisition to ensure comparability across samples. We then processed and analyzed the resulting images with Nikon Analysis Software, employing standardized thresholds for object detection. For analyses conducted in human neurons, the density of 6E10-positive aggregates was determined by calculating the number of discrete objects per unit area of the imaged field. In contrast, for analyses in primary neurons, we recorded the total number of discrete objects within each field. In both cases, we measured particle size as the fraction of the total field occupied by 6E10-positive signals, using a binary region of interest encompassing the entire field of view. This approach allowed for consistent, unbiased quantification of both the distribution and relative size of immunofluorescent aggregates under different experimental conditions.

[3] = system: human neurons cocultured with mouse glia; conditions: chronic exposure DIV6-DIV45, neurotoxic doses
Description: The Incucyte Cytotox Green assay, finally, monitors membrane integrity using a DNA dye that gains access to nuclei only when the plasma membrane is compromised (Supplemental Figure 1, F and G).
To obtain a live cell read out of neuronal death, we monitored loss of plasma-membrane integrity with Incucyte Cytotox Green reagent (Sartorius), a cell-impermeant DNA dye that fluoresces upon binding to nuclear DNA once the membrane is breached ([48]). A 250× stock supplied by the manufacturer was thawed on ice and diluted into prewarmed culture medium to a final working concentration of 250 nM immediately before use. For each assay plate, half the medium was removed and replaced with dye-containing medium so that the final dye concentration and vehicle composition were identical across all conditions. For validation, DIV30 cocultures were challenged for 4 hours with 200 μM H2O2; fluorescence images were acquired immediately thereafter. […] Dye was present for 2 hours before imaging to allow equilibrium without inducing additional stress. Ten nonoverlapping fields per well were captured with the 20× objective using green fluorescence channels. Exposure settings were kept constant within an experiment. Images were processed with ImageJ. A top-hat background subtraction was applied to the green channel, and a fluorescence threshold was kept constant across batches. […]

human neurons [4] = experiment: Quantification of synaptic puncta (Synapsin-1 and PSD95), confocal; format: cell-based; conditions: chronic treatment, DIV45
Experimental: as §1, with “Coverslips were washed once with PBS and once with water to remove salts before mounting, then were mounted using Fluoromount (with DAPI) (Thermo Fisher Scientific, 00-4959-52) on glass slides. All images were taken with the Nikon A1RSi confocal microscope (Nikon Instruments Inc.) for analysis of synaptic puncta using Nikon Analysis Software.” left out

human neurons [5] = experiment: GCaMP6m live imaging of Ca2+ signals (network activity); format: cell-based; parameters: Ca2+ imaging: Frequency / Ca2+ imaging: Amplitude: unit not given here; conditions: for Ca2+ imaging: Amplitude / Ca2+ imaging: Frequency / Ca2+ imaging: Synchronicity: single biological replicates (batches), n=3, listed as Ab42 arctic mutation
Experimental: To evaluate the effects of Aβ peptide treatments on neuronal network activity, live calcium imaging was performed using human neurons expressing the genetically encoded calcium indicator GCaMP. At DIV6, human neurons were infected with a lentiviral vector, prepared as described previously at Virus generation, carrying a plasmid encoding GCaMP6m under the control of the human Synapsin-1 promoter, ensuring neuron-specific expression. […] At DIV45, when the neurons had reached full maturation, synaptic activity was recorded. For potentiating synaptic transmission of human neurons, the cells were imaged with ambient 4 mM CaCl2 and 8 mM KCl equilibrated in a HEPES-based buffer (140 mM NaCl, 10 mM HEPES, 20 mM glucose, 1 mM MgCl2). […] Neuronal activity was captured in 2-minute videos at a frame rate of 10 frames/second, allowing for the detection of spontaneous calcium transients indicative of neuronal firing. Following acquisition, the videos were analyzed using MATLAB software (MathWorks). Regions of interest (ROIs) corresponding to 10–20 neurons were selected, and fluorescence intensity changes over time were extracted for each ROI. Analyses focused on quantifying the frequency, amplitude, and synchronicity of calcium signal peaks across the neuronal network. Signal peaks were identified using a peak detection algorithm, and synchronicity was assessed through cross-correlation analyses between neuronal pairs or by calculating network synchrony measures ([26]).

[6] = 0.1uM chronic, biological replicate 1
[7] = 0.1uM chronic, biological replicate 2
[8] = 0.1uM chronic, biological replicate 3
[9] = 0.2uM chronic, biological replicate 1
[10] = 0.2uM chronic, biological replicate 2
[11] = 0.2uM chronic, biological replicate 3
[12] = concentrations that proved synaptotoxic, DIV45

Substance: -.DAEFRHDSGYEVHHQKLVFFAGDVGSNKGAIIGLMVGGVVI.A [Aβ42^arctic]
- Neuronal cell density, values normalized to Ctrl (Figure 1E) (human neurons [1]; 0.005 uM chronic DIV6-DIV45, DIV45, biological replicate 1): 0.9504
- Neuronal cell density, values normalized to Ctrl (Figure 1E) (human neurons [1]; 0.005 uM chronic DIV6-DIV45, DIV45, biological replicate 2): 0.943
- Neuronal cell density, values normalized to Ctrl (Figure 1E) (human neurons [1]; 0.005 uM chronic DIV6-DIV45, DIV45, biological replicate 3): 0.9651
- Neuronal cell density, values normalized to Ctrl (Figure 1E) (human neurons [1]; 0.05 uM chronic DIV6-DIV45, DIV45, biological replicate 1): 0.9651
- Neuronal cell density, values normalized to Ctrl (Figure 1E) (human neurons [1]; 0.05 uM chronic DIV6-DIV45, DIV45, biological replicate 2): 0.9896
- Neuronal cell density, values normalized to Ctrl (Figure 1E) (human neurons [1]; 0.05 uM chronic DIV6-DIV45, DIV45, biological replicate 3): 1.07
- Neuronal cell density, values normalized to Ctrl (Figure 1E) (human neurons [1]; 0.1 uM chronic DIV6-DIV45, DIV45, biological replicate 1): 0.9054
- Neuronal cell density, values normalized to Ctrl (Figure 1E) (human neurons [1]; 0.1 uM chronic DIV6-DIV45, DIV45, biological replicate 2): 0.8702
- Neuronal cell density, values normalized to Ctrl (Figure 1E) (human neurons [1]; 0.1 uM chronic DIV6-DIV45, DIV45, biological replicate 3): 1.014
- Neuronal cell density, values normalized to Ctrl (Figure 1E) (human neurons [1]; 0.2 uM chronic DIV6-DIV45, DIV45, biological replicate 1): 0.8081
- Neuronal cell density, values normalized to Ctrl (Figure 1E) (human neurons [1]; 0.2 uM chronic DIV6-DIV45, DIV45, biological replicate 2): 0.8351
- Neuronal cell density, values normalized to Ctrl (Figure 1E) (human neurons [1]; 0.2 uM chronic DIV6-DIV45, DIV45, biological replicate 3): 0.7942
- Decrease of neuronal cell numbers (human neurons [1]; higher concentrations, chronic exposure, DIV45): approximately 15%
- Density of 6E10-positive structures (number of structures per area of field of view) [2, 6]: 0.009289
- Size of 6E10-positive structures (area fraction of the field of view occupied by aggregates) [2, 6]: 0.02043
- Density of 6E10-positive structures (number of structures per area of field of view) [2, 7]: 0.01336
- Size of 6E10-positive structures (area fraction of the field of view occupied by aggregates) [2, 7]: 0.034
- Density of 6E10-positive structures (number of structures per area of field of view) [2, 8]: 0.01613
- Size of 6E10-positive structures (area fraction of the field of view occupied by aggregates) [2, 8]: 0.04071
- Density of 6E10-positive structures (number of structures per area of field of view) [2, 9]: 0.03615
- Size of 6E10-positive structures (area fraction of the field of view occupied by aggregates) [2, 9]: 0.05614
- Density of 6E10-positive structures (number of structures per area of field of view) [2, 10]: 0.04641
- Size of 6E10-positive structures (area fraction of the field of view occupied by aggregates) [2, 10]: 0.04714
- Density of 6E10-positive structures (number of structures per area of field of view) [2, 11]: 0.06233
- Size of 6E10-positive structures (area fraction of the field of view occupied by aggregates) [2, 11]: 0.04014
- 6E10-positive Aβ aggregates in treated human neurons (in words) ([2]; chronic exposure, immunofluorescence with 6E10 antibody): significant 6E10-positive Aβ aggregates
- Incucyte Cytotox Green assay, labeled nuclei (in words) [3]: modest but consistent rise in labeled nuclei
- Loss of synapses (human neurons [4]; high concentrations): greater than 55%
- Effect on synapse numbers (in words) (human neurons [4]; lower concentrations): did not increase synapse numbers
- Neuronal network activity (in words) (human neurons [5]; any concentration, chronic treatment, DIV45): did not enhance neuronal network activity at any concentration
- Spike frequency and amplitude (in words) (human neurons [5]; [12]): pronounced fall
- Synchrony (in words) (human neurons [5]; [12]): near-complete breakdown
- Ca2+ imaging: Amplitude (human neurons [5]; peptide 0.1 uM): 0.4784 and 0.3202 and 0.4832
- Ca2+ imaging: Frequency (human neurons [5]; peptide 0.1 uM): 10.7529 and 5.405 and 6.996
- Ca2+ imaging: Synchronicity (human neurons [5]; peptide 0.1 uM): 0.2834 and 0.2877 and 0.3503
- Ca2+ imaging: Amplitude (human neurons [5]; peptide 0.2 uM): 0.3279 and 0.286 and 0.3267
- Ca2+ imaging: Frequency (human neurons [5]; peptide 0.2 uM): 0.6879 and 0.8917 and 1.347
- Ca2+ imaging: Synchronicity (human neurons [5]; peptide 0.2 uM): 0.2149 and 0.1382 and 0.2492
